Measurements from patent publication US20160193357A1.

Tests used:
[1] = molecular target: human Trop-2 on cells (human) (UniProt P09758); experiment: cell binding on NCI-N87, anti-mouse-HRP, luminescence
[2] = molecular target: recombinant human neonatal receptor (FcRn) (human) (UniProt P55899); experiment: SPR (BIACORE), FcRn on low-density chip, three runs at 400 to 25 nM
[3] = molecular target: rhTrop-2/TACSTD2 (Sino Biological, Inc.) (human) (UniProt P09758); experiment: SPR (BIACORE), recombinant human Trop-2 on low-density CM5 chip, 1:1 model, three runs
rhTrop-2/TACSTD2 (Sino Biological, Inc.) (human), sequence (P09758 27-274 limits assumed): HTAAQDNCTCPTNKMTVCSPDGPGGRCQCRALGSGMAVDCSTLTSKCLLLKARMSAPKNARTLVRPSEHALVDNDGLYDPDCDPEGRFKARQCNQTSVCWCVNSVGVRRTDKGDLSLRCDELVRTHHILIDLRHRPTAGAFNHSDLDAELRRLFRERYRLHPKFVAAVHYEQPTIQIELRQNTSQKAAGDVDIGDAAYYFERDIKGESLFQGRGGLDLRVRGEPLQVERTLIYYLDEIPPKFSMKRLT

[4] = molecular target: Recombinant human Trop-2 with a His-tag (Sino Biological, Cat#10428-H09H) (human) (UniProt P09758); experiment: ELISA on His-tagged recombinant human Trop-2 captured on Ni-NTA strips
Recombinant human Trop-2 with a His-tag (Sino Biological, Cat#10428-H09H) (human), sequence (P09758 27-274 limits assumed): as above

[5] = molecular target: human Trop-2 on cells (human) (UniProt P09758); experiment: cell-based or functional assay
[6] = molecular target: human Trop-2 on cells (human) (UniProt P09758); experiment: cell binding assay; cell line not stated
[7] = molecular target: rhTrop-2/TACSTD2 (Sino Biological, Inc.) (human) (UniProt P09758); experiment: SPR (BIACORE), Trop-2 on chip
[8] = molecular target: recombinant human neonatal receptor (FcRn) (human) (UniProt P55899); experiment: SPR (BIACORE), FcRn on chip

recombinant human neonatal receptor (FcRn) (human), sequence (P55899 24-297 limits assumed, chain 1 of 2): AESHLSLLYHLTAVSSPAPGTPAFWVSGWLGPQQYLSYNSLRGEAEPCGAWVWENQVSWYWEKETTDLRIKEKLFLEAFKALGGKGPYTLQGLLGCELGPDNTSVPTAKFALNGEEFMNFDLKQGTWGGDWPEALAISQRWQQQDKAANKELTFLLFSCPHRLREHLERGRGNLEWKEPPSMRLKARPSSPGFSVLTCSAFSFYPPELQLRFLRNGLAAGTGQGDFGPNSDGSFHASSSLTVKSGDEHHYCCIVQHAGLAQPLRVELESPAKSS
recombinant human neonatal receptor (FcRn) (human), sequence (P61769 21-119 limits assumed, chain 2 of 2, further chain): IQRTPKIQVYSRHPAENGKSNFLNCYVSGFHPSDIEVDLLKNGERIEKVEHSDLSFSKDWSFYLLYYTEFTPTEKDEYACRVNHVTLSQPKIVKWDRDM
human Trop-2 on cells (human), sequence (P09758 27-323): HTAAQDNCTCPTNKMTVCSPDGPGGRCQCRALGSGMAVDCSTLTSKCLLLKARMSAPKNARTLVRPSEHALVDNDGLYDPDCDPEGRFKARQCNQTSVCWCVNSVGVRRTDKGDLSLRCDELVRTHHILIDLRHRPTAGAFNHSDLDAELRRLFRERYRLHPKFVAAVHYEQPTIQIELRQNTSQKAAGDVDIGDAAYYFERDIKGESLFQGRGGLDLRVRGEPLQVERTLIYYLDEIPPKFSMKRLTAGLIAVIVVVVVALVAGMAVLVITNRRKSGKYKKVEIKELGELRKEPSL

Substance | BMax (relative luminescent units) [1] | Kd [1] [nM] | reduction of maximum binding (Bmax) compared to RS7 [1] [%] | Kd [2] [nM] | Kd [3] [nM] | ADCC, specific lysis of MDA-MB-468 by PBMCs (E:T 50:1, 33.3 nM) [5] [%] | γH2AX induction in BxPC-3, Mean Fluorescence Intensity [5] [MFI] | γH2AX induction in BxPC-3, Percent Positive [5] [%] | also measured
162-46.2 murine anti-Trop-2 monoclonal antibody | 8470 | 0.52 | 25 |  |  |  |  |  | 
humanized RS7 (hRS7) anti-Trop-2 antibody |  |  |  | 92.4 | 0.51 | 29.8 |  |  | Kd [4]: 0.3 nM; ADCC, specific lysis of BxPC-3 by PBMCs (E:T 100:1, 33.3 nM) [5]: 8.5%
MAB650 murine anti-Trop-2 monoclonal antibody (R&D Systems) | 6020 | 0.49 | 50 |  |  |  |  |  | 
hA20 anti-CD20-SN38 conjugate (antibody) |  |  |  |  |  |  | 2250 | 12.7 | 
Sacituzumab govitecan (IMMU-132, also known as hRS7-CL2A-SN-38) (antibody) |  |  |  | 192 | 0.26 | 8.6 | 5350 | 69 | Kd [6]: 1.2 nM; Median fluorescence intensity of phospho-H2AX staining (dsDNA breaks), HCC1806 (Trop-2+), after 30 min at 4° C., wash and overnight culture [5]: 546 MFI; fold improvement in KD compared to naked hRS7 [7]: 2 fold; fold lower average binding level than hRS7 [8]: 2 fold
